Assay results from patent publication US20260167699A1 (Chugai, published 2026).
Changes are numbered by the printed parent chain.

T1: FcγRIIa(R) (human, UniProt P12318 34-217)
T1 construct: extracellular domain; also called FcγRIIa R type; 2aR
T1 sequence: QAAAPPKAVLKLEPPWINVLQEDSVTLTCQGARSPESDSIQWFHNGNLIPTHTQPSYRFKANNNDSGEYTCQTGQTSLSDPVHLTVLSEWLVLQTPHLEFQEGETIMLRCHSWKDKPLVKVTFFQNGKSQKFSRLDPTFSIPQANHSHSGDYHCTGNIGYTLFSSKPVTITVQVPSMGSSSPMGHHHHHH

T2: FcγRIIa(H) (human, UniProt P12318 34-217)
T2 construct: extracellular domain; also called FcγRIIa H type; 2aH
T2 sequence: T1 sequence with R134H

T3: FcγRIIb (human, UniProt P31994 43-217)
T3 construct: extracellular domain; also called 2b
T3 sequence: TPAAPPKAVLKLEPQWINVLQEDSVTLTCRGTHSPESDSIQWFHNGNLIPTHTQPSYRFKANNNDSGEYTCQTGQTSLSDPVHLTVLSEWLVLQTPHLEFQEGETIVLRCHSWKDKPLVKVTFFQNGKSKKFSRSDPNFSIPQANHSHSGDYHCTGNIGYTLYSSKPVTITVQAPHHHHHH

B1: GpH7-A5/GpH7-B3 variant H268_05P/GpL16-k0 (antibody, human IgG1, kappa)
heavy 1: not shown
heavy 2: not shown
light: DIVMTQSPLSLPVTPGEPASISCQASESLVHSNRNTYLHWYLQKPGQSPQLLIYKVSNRFSGVPDRFSGSGSGTDFTLKISRVEAEDVGVYYCSQNTHVPPTFGQGTKVEIERTVAAPSVFIFPPSDEQLKSGTASVVCLLNNFYPREAKVQWKVDNALQSGNSQESVTEQDSKDSTYSLSSTLTLSKADYEKHKVYACEVTHQGLSSPVTKSFNRGEC
notes: heterodimerized IgG1, one H chain mutated; also called He Ab
B2: GpH7-A5/GpH7-B3 variant G236_20W/GpL16-k0 (antibody, human IgG1, kappa)
heavy 1: not shown
heavy 2: not shown
light: B1 light
notes: as for B1
B3: GpH7-A5/GpH7-B3 variant H268_06M/GpL16-k0 (antibody, human IgG1, kappa)
heavy 1: not shown
heavy 2: not shown
light: B1 light
notes: as for B1
B4: GpH7-A5/GpH7-B3 variant E269_14T/GpL16-k0 (antibody, human IgG1, kappa)
heavy 1: not shown
heavy 2: not shown
light: B1 light
notes: as for B1
B5: GpH7-A5/GpH7-B3 variant E269_02A/GpL16-k0 (antibody, human IgG1, kappa)
heavy 1: not shown
heavy 2: not shown
light: B1 light
notes: as for B1
B6: GpH7-A5/GpH7-B3 variant E269_13S/GpL16-k0 (antibody, human IgG1, kappa)
heavy 1: not shown
heavy 2: not shown
light: B1 light
notes: as for B1
B7: GpH7-A5/GpH7-B3 variant E269_09D/GpL16-k0 (antibody, human IgG1, kappa)
heavy 1: not shown
heavy 2: not shown
light: B1 light
notes: as for B1
B8: GpH7-A5/GpH7-B3 variant H268_02A/GpL16-k0 (antibody, human IgG1, kappa)
heavy 1: not shown
heavy 2: not shown
light: B1 light
notes: as for B1
B9: GpH7-A5/GpH7-B3 variant H268_15Y/GpL16-k0 (antibody, human IgG1, kappa)
heavy 1: not shown
heavy 2: not shown
light: B1 light
notes: as for B1
B10: GpH7-A5/GpH7-B3 variant E269_01G/GpL16-k0 (antibody, human IgG1, kappa)
heavy 1: not shown
heavy 2: not shown
light: B1 light
notes: as for B1
B11: GpH7-A5/GpH7-B3 variant H268_01G/GpL16-k0 (antibody, human IgG1, kappa)
heavy 1: not shown
heavy 2: not shown
light: B1 light
notes: as for B1
B12: GpH7-A5/GpH7-B3 variant H268_13S/GpL16-k0 (antibody, human IgG1, kappa)
heavy 1: not shown
heavy 2: not shown
light: B1 light
notes: as for B1
B13: GpH7-A5/GpH7-B3 variant D270_08L/GpL16-k0 (antibody, human IgG1, kappa)
heavy 1: not shown
heavy 2: not shown
light: B1 light
notes: as for B1
B14: GpH7-A5/GpH7-B3 variant H268_08L/GpL16-k0 (antibody, human IgG1, kappa)
heavy 1: not shown
heavy 2: not shown
light: B1 light
notes: as for B1
B15: GpH7-A5/GpH7-B3 variant H268_14T/GpL16-k0 (antibody, human IgG1, kappa)
heavy 1: not shown
heavy 2: not shown
light: B1 light
notes: as for B1
B16: GpH7-A5/GpH7-B3 variant H268_10E/GpL16-k0 (antibody, human IgG1, kappa)
heavy 1: not shown
heavy 2: not shown
light: B1 light
notes: as for B1
B17: GpH7-A5/GpH7-B3 variant H268_07I/GpL16-k0 (antibody, human IgG1, kappa)
heavy 1: not shown
heavy 2: not shown
light: B1 light
notes: as for B1
B18: GpH7-A5/GpH7-B3 variant H268_09D/GpL16-k0 (antibody, human IgG1, kappa)
heavy 1: not shown
heavy 2: not shown
light: B1 light
notes: as for B1
B19: GpH7-A5/GpH7-B3 variant G236_09D/GpL16-k0 (antibody, human IgG1, kappa)
heavy 1: not shown
heavy 2: not shown
light: B1 light
notes: as for B1
B20: GpH7-A5/GpH7-B3 variant G236_02A/GpL16-k0 (antibody, human IgG1, kappa)
heavy 1: not shown
heavy 2: not shown
light: B1 light
notes: as for B1
B21: GpH7-A5/GpH7-B3 variant H268_12R/GpL16-k0 (antibody, human IgG1, kappa)
heavy 1: not shown
heavy 2: not shown
light: B1 light
notes: as for B1
B22: GpH7-A5/GpH7-B3 variant H268_11K/GpL16-k0 (antibody, human IgG1, kappa)
heavy 1: not shown
heavy 2: not shown
light: B1 light
notes: as for B1
B23: GpH7-A5/GpH7-B3 variant D270_14T/GpL16-k0 (antibody, human IgG1, kappa)
heavy 1: not shown
heavy 2: not shown
light: B1 light
notes: as for B1
B24: GpH7-A5/GpH7-B3 variant H268_04F/GpL16-k0 (antibody, human IgG1, kappa)
heavy 1: not shown
heavy 2: not shown
light: B1 light
notes: as for B1
B25: GpH7-A5/GpH7-B3 variant H268_18N/GpL16-k0 (antibody, human IgG1, kappa)
heavy 1: not shown
heavy 2: not shown
light: B1 light
notes: as for B1
B26: GpH7-A5/GpH7-B3 variant H268_03V/GpL16-k0 (antibody, human IgG1, kappa)
heavy 1: not shown
heavy 2: not shown
light: B1 light
notes: as for B1
B27: GpH7-A5/GpH7-B3 variant G236_10E/GpL16-k0 (antibody, human IgG1, kappa)
heavy 1: not shown
heavy 2: not shown
light: B1 light
notes: as for B1
B28: GpH7-A5/GpH7-B3 variant D270_10E/GpL16-k0 (antibody, human IgG1, kappa)
heavy 1: not shown
heavy 2: not shown
light: B1 light
notes: as for B1

Assays:
Assay in all cases: SPR (Biacore), binding relative to GpH7-A5/GpH7-B3/GpL16-k0 x100;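 also: surface plasmon resonance at 25 °C, antibody captured on a sensor chip and soluble FcγR flowed over it in HBS-EP+ running buffer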
FcγRIa = biological target: T4, FcγRIa (human, UniProt P12314 16-292)
T4 construct: extracellular domain; also called 1a
T4 sequence (P12314 other isoform, or with tags, fused parts or gaps): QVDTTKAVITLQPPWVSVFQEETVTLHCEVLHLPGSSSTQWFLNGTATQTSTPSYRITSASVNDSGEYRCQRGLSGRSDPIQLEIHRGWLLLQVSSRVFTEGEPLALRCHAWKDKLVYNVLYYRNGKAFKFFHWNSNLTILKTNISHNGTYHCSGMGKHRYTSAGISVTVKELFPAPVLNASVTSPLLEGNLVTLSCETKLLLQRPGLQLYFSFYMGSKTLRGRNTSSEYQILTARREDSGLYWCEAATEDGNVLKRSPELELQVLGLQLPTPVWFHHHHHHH

FcγRIIa(R) = biological target: T1, FcγRIIa(R)
FcγRIIa(H) = biological target: T2, FcγRIIa(H)
FcγRIIb = biological target: T3, FcγRIIb

Binder	He/Con 1a (FcγRIa) [%]	He/Con 2aR (FcγRIIa(R)) [%]	He/Con 2aH (FcγRIIa(H)) [%]	He/Con 2b (FcγRIIb) [%]
B1	106	114	82.7	122
B2	104	77.3	153	60.7
B3	101	67.2	85.8	69
B4	102	71	70.3	53.2
B5	101	70.2	78.7	52.4
B6	99.8	65.8	70.7	50.2
B7	103	113	105	110
B8	105	143	115	175
B9	104	118	113	112
B10	101	70.3	72.3	54.1
B11	104	134	100	151
B12	106	137	114	168
B13	93.2	62.8	81.8	50.8
B14	104	91.4	85.9	71.2
B15	108	100	93.5	90.3
B16	107	159	126	242
B17	104	102	91.2	93.4
B18	106	161	134	251
B19	95.5	105	93.5	174
B20	99.1	145	145	101
B21	103	113	90.9	94.3
B22	102	108	89.8	87.2
B23	89.5	72.2	81.3	54.8
B24	103	105	112	94.2
B25	104	138	113	164
B26	103	117	100	120
B27	92.6	124	116	115
B28	104	85.7	111	72.5
